Measurements taken from patent US20240366624A1, “METHODS AND COMPOSITIONS FOR TREATING THROMBOTIC DISEASE” (Washington University, priority 2023, published 2024).
Positions count from the first letter of the chain named.

B1: wtERO1α: recombinant wild-type ERO1α (protein)
chain: EEQPPETAAQRCFCQVSGYLDDCTCDVETIDRFNNYRLFPRLQKLLESDYFRYYKVNLKRPCPFWNDISQCGRRDCAVKPCQSDEVPDGIKSASYKYSEEANNLIEECEQAERLGAVDESLSEETQKAVLQWTKHDDSSDNFCEADDIQSPEAEYVDLLLNPERYTGYKGPDAWKIWNVIYEENCFKPQTIKRPLNPLASGQGTSEENTFYSWLEGLCVEKRAFYRLISGLHASINVHLSARYLLQETWLEKKWGHNITEFQQRFDGILTEGEGPRRLKNLYFLYLIELRALSKVLPFFERPDFQLFTGNKIQDEENKMLLLEILHEIKSFPLHFDENSFFAGDKKEAHKLKEDFRLHFRNISRIMDCVGCFKCRLWGKLQTQGLGTALKILFSEKLIANMPESGPSYEFHLTRQEIVSLFNAFGRISTSVKELENFRNLLQNIH
B2: mERO1α: activity-null ERO1α-Cys94Ser (protein)
chain: B1 chain with C71S

How the values were obtained:
Ero1α-null platelets = experiment: Platelet aggregation, Ero1α-null platelets; format: cell-based, mouse; conditions: 50 μg/mL protein, 0.025 U/mL thrombin
Description: FIG. 7(A-L) is an exemplary embodiment of crucial intracellular ERO1α (endoplasmic reticulum oxidoreductase 1a) for platelet activation, aggregation, and thrombus formation in accordance with the present disclosure. FIG. 7A: Ex vivo platelet thrombus formation in a flow chamber assay. Adherent and aggregated platelets were stained with rhodamine-conjugated phalloidin and imaged by confocal microscopy. Representative images (bar, 10 μm). Surface coverage and thrombus volume were measured (mean±SD, n=4). FIG. 7(B-E): Aggregation and ATP secretion of wild type (WT) and Ero1α-null platelets were induced by 0.025 U/mL thrombin, 0.05 μg/mL CRP (collagen-related peptide), 0.5 μM A23187, or 2.5 μM ADP. […] Quantification graphs of aggregation and ATP secretion are presented as the mean±SD (n=3-4). FIG. 7G and FIG. 7H: P-selectin exposure and αIIbβ3 integrin activation of WT and Ero1α-null platelets were analyzed by flow cytometry. The data are presented as the geometric mean fluorescence intensity (MFI) value (mean±SD, n=3-4). […] P values determined by unpaired Student t test (FIG. 7(A-E) and FIG. 7(G-1)), ANOVA and Dunnett test (FIG. 7F), or Mann-Whitney U test (FIG. 7K and FIG. 7L). […]
FIG. 10(A-E) is an exemplary embodiment of 15E9 not affecting platelet activation and aggregation in accordance with the present disclosure. […] P values determined by unpaired Student's t-test (vs. mIgG1). […]

Ero1α KO mice = experiment: Intravital microscopy, laser-induced cremaster arteriolar injury, rescue in Ero1α KO mice; format: in vivo, mouse; conditions: 4 μg/g BW into Ero1α KO mice
Description: FIG. 2 (A-C): DyLight 649-conjugated anti-CD42c and Alexa 488-conjugated rabbit IgG or polyclonal anti-ERO1α antibodies (0.3 μg/g body weight [BW]) were injected into wild type (WT) mice for intravital microscopy. Platelet accumulation and extracellular Ero1α were detected at the site of laser-induced cremaster arteriolar injury. FIG. 2A: Representative images. FIG. 2B and FIG. 2C: The median integrated fluorescence intensities of anti-CD42c (F platelet) and anti-ERO1α antibodies (F Ero1α; n=41-43 arterioles in 6 WT mice per group). FIG. 2(D-F): Intravital microscopy with WT control and Ero1α conditional knockout (CKO) and knockout (KO) mice. After laser-induced cremaster arteriolar injury, platelet accumulation and fibrin generation were detected by injection of DyLight 649-conjugated anti-CD42c and Alexa 488-conjugated anti-fibrin antibodies, respectively. FIG. 2D: Representative images. FIG. 2E and FIG. 2F: The median integrated fluorescence intensities of anti-CD42c (F platelet) and anti-fibrin (F fibrin) antibodies (n=36-44 arterioles in 6 mice per group). Quantification of the antibody signal at a different time point after laser injury. FIG. 2G and FIG. 2H: Ero1α KO mice were treated with recombinant wtERO1α or mutant ERO1α (m ERO1a) (Cys94Ser), 4 μg/g BW. After laser injury, platelets and fibrin were detected as described above (n=36-38 arterioles in 6 mice per group). FIG. 2I: The time to occlusion (TTO) was measured by a Doppler blood flow meter in WT control, Ero1α CKO/KO, and β3 KO mice after the application of 6.5% FeCl3 to a carotid artery (n=8-11 mice per group). FIG. 2J and FIG. 2K: After amputating the tail tip (5 mm), tail bleeding times and hemoglobin (Hb) contents were measured in WT control, Ero1α CKO/KO, and β3 KO mice (n=8-9 mice per group). Bars represent the median value. P values were determined by Mann-Whitney U test (FIG. 2E, FIG. 2F, and FIG. 2(1-K)) or ANOVA and Dunn test (FIG. 2G and FIG. 2H).
Intravital microscopy was performed in a mouse model of laser-induced cremaster arteriolar injury as previously described. WT (C57BL/6), littermate WT control, and CKO and KO male mice (8-10 weeks old) were anesthetized with intraperitoneal injection of ketamine and xylazine. The cremaster muscle was exteriorized and superfused with 37° C. bicarbonate-buffered saline throughout the experiment. Arteriolar wall injury was induced by laser ablation (Photonics Instruments) as previously described. Multiple thrombi were generated in at least 3 to 4 different arterioles of 1 mouse, with new thrombi formed upstream of earlier thrombi to minimize any contribution from thrombi generated earlier in the mouse. […]

Molecule	rescue of the defect in Ero1α-null platelet aggregation (Ero1α-null platelets)	rescue of fibrin generation (Ero1α KO mice)	rescue of platelet thrombus formation (Ero1α KO mice)
B1	did not rescue	minimal rescue effect	minimal rescue effect
B2		did not show any effect	did not show any effect
